Reference: US20220204580A1 (AstraZeneca / MedImmune, published 2022)
Numbered stars: 1 amine (or outer) side, 2 acyl side, 3 side chain; on linkers, the order of the positions; unused ones are H or OH. Bridge positions count the residues as written; N and C are the ends. Square brackets hold non-standard residues; d marks the D form. Side chains are listed from the residue outwards. Ends that are not written are not given here. * marks the point of attachment. C18 diacid = O=C(O)CCCCCCCCCCCCCCCCC(=O)*; γGlu = O=C(O)[C@H](CCC(=O)[*:2])N[*:1]; Aib = CC(C)(N)C(=O)O

T1: human amylin receptor (calcitonin receptor co-expressed with receptor activity modifying protein, RAMP3) (human, UniProt P30988 25-474; O60896 24-148)
T1 sequence (looked up) 1: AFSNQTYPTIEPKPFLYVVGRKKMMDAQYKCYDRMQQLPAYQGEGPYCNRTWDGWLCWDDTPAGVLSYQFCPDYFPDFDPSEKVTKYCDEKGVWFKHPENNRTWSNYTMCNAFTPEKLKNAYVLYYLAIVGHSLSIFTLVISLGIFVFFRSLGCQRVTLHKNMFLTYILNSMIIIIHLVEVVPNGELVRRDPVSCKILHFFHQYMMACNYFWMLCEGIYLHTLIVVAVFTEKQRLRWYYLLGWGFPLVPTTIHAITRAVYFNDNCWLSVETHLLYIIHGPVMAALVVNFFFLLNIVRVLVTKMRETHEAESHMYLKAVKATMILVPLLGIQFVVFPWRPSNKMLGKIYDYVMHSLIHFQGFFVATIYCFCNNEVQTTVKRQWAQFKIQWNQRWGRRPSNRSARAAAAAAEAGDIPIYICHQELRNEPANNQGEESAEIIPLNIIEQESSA
T1 sequence (looked up) 2: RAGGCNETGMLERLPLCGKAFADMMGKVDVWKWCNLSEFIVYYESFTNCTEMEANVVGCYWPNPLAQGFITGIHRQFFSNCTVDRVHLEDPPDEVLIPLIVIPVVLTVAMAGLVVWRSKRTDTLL

T2: human calcitonin receptor (human, UniProt P30988 25-474)
T2 sequence (looked up): T1 sequence (looked up) 1

B1: Peptide 92 (SEQ ID NO: 92) (peptide)
peptide: K([γGlu-γGlu-C18 diacid])CNTATCATQRLANFLRHSS[Aib]NFGPILPPTNVGS[Aib]TY-NH2
modifications: disulfide 2-7; N-terminus assumed
SMILES: CC[C@H](C)[C@H](NC(=O)[C@@H]1CCCN1C(=O)CNC(=O)[C@H](Cc1ccccc1)NC(=O)[C@H](CC(N)=O)NC(=O)C(C)(C)NC(=O)[C@H](CO)NC(=O)[C@H](CO)NC(=O)[C@H](Cc1c[nH]cn1)NC(=O)[C@H](CCCNC(=N)N)NC(=O)[C@H](CC(C)C)NC(=O)[C@H](Cc1ccccc1)NC(=O)[C@H](CC(N)=O)NC(=O)[C@H](C)NC(=O)[C@H](CC(C)C)NC(=O)[C@H](CCCNC(=N)N)NC(=O)[C@H](CCC(N)=O)NC(=O)[C@@H](NC(=O)[C@H](C)NC(=O)[C@@H]1CSSC[C@H](NC(=O)[C@@H](N)CCCCNC(=O)CC[C@H](NC(=O)CC[C@H](NC(=O)CCCCCCCCCCCCCCCCC(=O)O)C(=O)O)C(=O)O)C(=O)N[C@@H](CC(N)=O)C(=O)N[C@@H]([C@@H](C)O)C(=O)N[C@@H](C)C(=O)N[C@@H]([C@@H](C)O)C(=O)N1)[C@@H](C)O)C(=O)N[C@@H](CC(C)C)C(=O)N1CCC[C@H]1C(=O)N1CCC[C@H]1C(=O)N[C@H](C(=O)N[C@@H](CC(N)=O)C(=O)N[C@H](C(=O)NCC(=O)N[C@@H](CO)C(=O)NC(C)(C)C(=O)N[C@H](C(=O)N[C@@H](Cc1ccc(O)cc1)C(N)=O)[C@@H](C)O)C(C)C)[C@@H](C)O
B2: Peptide 95 (SEQ ID NO: 95) (peptide)
peptide: K([γGlu-C18 diacid])KCNTATCATQRLANFL[Aib]HSSNNFGPI[Aib]PPTNVGSNTY-NH2
modifications: disulfide 3-8; N-terminus assumed
SMILES: CC[C@H](C)[C@H](NC(=O)[C@@H]1CCCN1C(=O)CNC(=O)[C@H](Cc1ccccc1)NC(=O)[C@H](CC(N)=O)NC(=O)[C@H](CC(N)=O)NC(=O)[C@H](CO)NC(=O)[C@H](CO)NC(=O)[C@H](Cc1c[nH]cn1)NC(=O)C(C)(C)NC(=O)[C@H](CC(C)C)NC(=O)[C@H](Cc1ccccc1)NC(=O)[C@H](CC(N)=O)NC(=O)[C@H](C)NC(=O)[C@H](CC(C)C)NC(=O)[C@H](CCCNC(=N)N)NC(=O)[C@H](CCC(N)=O)NC(=O)[C@@H](NC(=O)[C@H](C)NC(=O)[C@@H]1CSSC[C@H](NC(=O)[C@H](CCCCN)NC(=O)[C@@H](N)CCCCNC(=O)CC[C@H](NC(=O)CCCCCCCCCCCCCCCCC(=O)O)C(=O)O)C(=O)N[C@@H](CC(N)=O)C(=O)N[C@@H]([C@@H](C)O)C(=O)N[C@@H](C)C(=O)N[C@@H]([C@@H](C)O)C(=O)N1)[C@@H](C)O)C(=O)NC(C)(C)C(=O)N1CCC[C@H]1C(=O)N1CCC[C@H]1C(=O)N[C@H](C(=O)N[C@@H](CC(N)=O)C(=O)N[C@H](C(=O)NCC(=O)N[C@@H](CO)C(=O)N[C@@H](CC(N)=O)C(=O)N[C@H](C(=O)N[C@@H](Cc1ccc(O)cc1)C(N)=O)[C@@H](C)O)C(C)C)[C@@H](C)O
B3: Peptide 94 (SEQ ID NO: 94) (peptide)
peptide: K([γGlu-C18 diacid])KCNTATCATQRLANFL[Aib]HSSNNFGP[Aib]LPPTNVGSNTY-NH2
modifications: disulfide 3-8; N-terminus assumed
SMILES: CC(C)C[C@H](NC(=O)[C@H](CCCNC(=N)N)NC(=O)[C@H](CCC(N)=O)NC(=O)[C@@H](NC(=O)[C@H](C)NC(=O)[C@@H]1CSSC[C@H](NC(=O)[C@H](CCCCN)NC(=O)[C@@H](N)CCCCNC(=O)CC[C@H](NC(=O)CCCCCCCCCCCCCCCCC(=O)O)C(=O)O)C(=O)N[C@@H](CC(N)=O)C(=O)N[C@@H]([C@@H](C)O)C(=O)N[C@@H](C)C(=O)N[C@@H]([C@@H](C)O)C(=O)N1)[C@@H](C)O)C(=O)N[C@@H](C)C(=O)N[C@@H](CC(N)=O)C(=O)N[C@@H](Cc1ccccc1)C(=O)N[C@@H](CC(C)C)C(=O)NC(C)(C)C(=O)N[C@@H](Cc1c[nH]cn1)C(=O)N[C@@H](CO)C(=O)N[C@@H](CO)C(=O)N[C@@H](CC(N)=O)C(=O)N[C@@H](CC(N)=O)C(=O)N[C@@H](Cc1ccccc1)C(=O)NCC(=O)N1CCC[C@H]1C(=O)NC(C)(C)C(=O)N[C@@H](CC(C)C)C(=O)N1CCC[C@H]1C(=O)N1CCC[C@H]1C(=O)N[C@H](C(=O)N[C@@H](CC(N)=O)C(=O)N[C@H](C(=O)NCC(=O)N[C@@H](CO)C(=O)N[C@@H](CC(N)=O)C(=O)N[C@H](C(=O)N[C@@H](Cc1ccc(O)cc1)C(N)=O)[C@@H](C)O)C(C)C)[C@@H](C)O
B4: Peptide 96 (SEQ ID NO: 96) (peptide)
peptide: K([γGlu-C18 diacid])KCNTATCATQRLANFL[Aib]HSSNNFGPIL[Aib]PTNVGSNTY-NH2
modifications: disulfide 3-8; N-terminus assumed
SMILES: CC[C@H](C)[C@H](NC(=O)[C@@H]1CCCN1C(=O)CNC(=O)[C@H](Cc1ccccc1)NC(=O)[C@H](CC(N)=O)NC(=O)[C@H](CC(N)=O)NC(=O)[C@H](CO)NC(=O)[C@H](CO)NC(=O)[C@H](Cc1c[nH]cn1)NC(=O)C(C)(C)NC(=O)[C@H](CC(C)C)NC(=O)[C@H](Cc1ccccc1)NC(=O)[C@H](CC(N)=O)NC(=O)[C@H](C)NC(=O)[C@H](CC(C)C)NC(=O)[C@H](CCCNC(=N)N)NC(=O)[C@H](CCC(N)=O)NC(=O)[C@@H](NC(=O)[C@H](C)NC(=O)[C@@H]1CSSC[C@H](NC(=O)[C@H](CCCCN)NC(=O)[C@@H](N)CCCCNC(=O)CC[C@H](NC(=O)CCCCCCCCCCCCCCCCC(=O)O)C(=O)O)C(=O)N[C@@H](CC(N)=O)C(=O)N[C@@H]([C@@H](C)O)C(=O)N[C@@H](C)C(=O)N[C@@H]([C@@H](C)O)C(=O)N1)[C@@H](C)O)C(=O)N[C@@H](CC(C)C)C(=O)NC(C)(C)C(=O)N1CCC[C@H]1C(=O)N[C@H](C(=O)N[C@@H](CC(N)=O)C(=O)N[C@H](C(=O)NCC(=O)N[C@@H](CO)C(=O)N[C@@H](CC(N)=O)C(=O)N[C@H](C(=O)N[C@@H](Cc1ccc(O)cc1)C(N)=O)[C@@H](C)O)C(C)C)[C@@H](C)O
B5: Peptide 90 (SEQ ID NO: 90) (peptide)
peptide: K([γGlu-γGlu-C18 diacid])CNTATCATQRLANFLRHSS[Aib]NFGPILPPT[Aib]VGSNTY-NH2
modifications: disulfide 2-7; N-terminus assumed
SMILES: CC[C@H](C)[C@H](NC(=O)[C@@H]1CCCN1C(=O)CNC(=O)[C@H](Cc1ccccc1)NC(=O)[C@H](CC(N)=O)NC(=O)C(C)(C)NC(=O)[C@H](CO)NC(=O)[C@H](CO)NC(=O)[C@H](Cc1c[nH]cn1)NC(=O)[C@H](CCCNC(=N)N)NC(=O)[C@H](CC(C)C)NC(=O)[C@H](Cc1ccccc1)NC(=O)[C@H](CC(N)=O)NC(=O)[C@H](C)NC(=O)[C@H](CC(C)C)NC(=O)[C@H](CCCNC(=N)N)NC(=O)[C@H](CCC(N)=O)NC(=O)[C@@H](NC(=O)[C@H](C)NC(=O)[C@@H]1CSSC[C@H](NC(=O)[C@@H](N)CCCCNC(=O)CC[C@H](NC(=O)CC[C@H](NC(=O)CCCCCCCCCCCCCCCCC(=O)O)C(=O)O)C(=O)O)C(=O)N[C@@H](CC(N)=O)C(=O)N[C@@H]([C@@H](C)O)C(=O)N[C@@H](C)C(=O)N[C@@H]([C@@H](C)O)C(=O)N1)[C@@H](C)O)C(=O)N[C@@H](CC(C)C)C(=O)N1CCC[C@H]1C(=O)N1CCC[C@H]1C(=O)N[C@H](C(=O)NC(C)(C)C(=O)N[C@H](C(=O)NCC(=O)N[C@@H](CO)C(=O)N[C@@H](CC(N)=O)C(=O)N[C@H](C(=O)N[C@@H](Cc1ccc(O)cc1)C(N)=O)[C@@H](C)O)C(C)C)[C@@H](C)O
B6: Peptide 91 (SEQ ID NO: 91) (peptide)
peptide: K([γGlu-γGlu-C18 diacid])CNTATCATQRLANFLVHSS[Aib]NFGPILPPTNVGS[Aib]TY-NH2
modifications: disulfide 2-7; N-terminus assumed
SMILES: CC[C@H](C)[C@H](NC(=O)[C@@H]1CCCN1C(=O)CNC(=O)[C@H](Cc1ccccc1)NC(=O)[C@H](CC(N)=O)NC(=O)C(C)(C)NC(=O)[C@H](CO)NC(=O)[C@H](CO)NC(=O)[C@H](Cc1c[nH]cn1)NC(=O)[C@@H](NC(=O)[C@H](CC(C)C)NC(=O)[C@H](Cc1ccccc1)NC(=O)[C@H](CC(N)=O)NC(=O)[C@H](C)NC(=O)[C@H](CC(C)C)NC(=O)[C@H](CCCNC(=N)N)NC(=O)[C@H](CCC(N)=O)NC(=O)[C@@H](NC(=O)[C@H](C)NC(=O)[C@@H]1CSSC[C@H](NC(=O)[C@@H](N)CCCCNC(=O)CC[C@H](NC(=O)CC[C@H](NC(=O)CCCCCCCCCCCCCCCCC(=O)O)C(=O)O)C(=O)O)C(=O)N[C@@H](CC(N)=O)C(=O)N[C@@H]([C@@H](C)O)C(=O)N[C@@H](C)C(=O)N[C@@H]([C@@H](C)O)C(=O)N1)[C@@H](C)O)C(C)C)C(=O)N[C@@H](CC(C)C)C(=O)N1CCC[C@H]1C(=O)N1CCC[C@H]1C(=O)N[C@H](C(=O)N[C@@H](CC(N)=O)C(=O)N[C@H](C(=O)NCC(=O)N[C@@H](CO)C(=O)NC(C)(C)C(=O)N[C@H](C(=O)N[C@@H](Cc1ccc(O)cc1)C(N)=O)[C@@H](C)O)C(C)C)[C@@H](C)O

Biological target: T1, human amylin receptor (calcitonin …)
Test: cell-based or functional assay

Question: With B1 as the binder, how does the “EC50 (cAMP production)” value read?
Answer: The value was 0.341 nM.

Question: And the “Ratio (EC50 hCTR / EC50 hAMYR3)” value?
Answer: Its value is 130.

Question: Which results are given for B2?
Answer: EC50 (cAMP production): 0.691 nM; Ratio (EC50 hCTR / EC50 hAMYR3): 2

Question: Which “EC50 (cAMP production)” value does the source give for B3 here?
Answer: Its value is 0.322 nM.

Question: And the “Ratio (EC50 hCTR / EC50 hAMYR3)” value?
Answer: The value was 6.

Question: How did the “EC50 (cAMP production)” value turn out when B4 was run?
Answer: Its value is 0.556 nM.

Question: What about the “Ratio (EC50 hCTR / EC50 hAMYR3)” value of the same binder?
Answer: The value was 2.

Question: B5 was tested. Which “EC50 (cAMP production)” value did it give?
Answer: Its value is 1.06 nM.

Question: What about the “Ratio (EC50 hCTR / EC50 hAMYR3)” value of the same binder?
Answer: Its value is 15.

Question: With B6 as the binder, how does the “EC50 (cAMP production)” value read?
Answer: Its value is 0.2 nM.

Question: And the “Ratio (EC50 hCTR / EC50 hAMYR3)” value?
Answer: The value was 12.

Biological target: T2, human calcitonin receptor
Test: cell-based or functional assay

Question: B1 was tested. Which “EC50 (cAMP production)” value did it give?
Answer: The value was 44.4 nM.

Question: For B2, which “EC50 (cAMP production)” value is on record?
Answer: The value was 1.17 nM.

Question: With B3 as the binder, how does the “EC50 (cAMP production)” value read?
Answer: Its value is 1.9 nM.

Question: B4 was tested. Which “EC50 (cAMP production)” value did it give?
Answer: Its value is 0.859 nM.

Question: B5 was tested. Which “EC50 (cAMP production)” value did it give?
Answer: Its value is 15.6 nM.

Question: With B6 as the binder, how does the “EC50 (cAMP production)” value read?
Answer: The value was 2.36 nM.
